This note sets out measurements from patent US20060286093A1 (ZymoGenetics, published 2006).

The target in one assay is ztnf4 (human) (UniProt Q9Y275).
A further assay concerns the target T1, soluble I125-ztnf4 (human, UniProt Q9Y275 134-285, limits assumed, 125I label).
T1 construct: also called ztnf4 sol
Briefly: Scatchard analysis of soluble I125-ztnf4 binding to stable BHK transfectants expressing BCMA.

Consider “BCMA-Ig (from UniProt Q9Y275) (Fc fusion)”, for which the IC50 (read off the curve), inhibition of ztnf4-driven human B cell proliferation in the assay with ztnf4 (human) was 0.1 mg/L.

B1: BCMA expressed on cells (receptor)
chain: MLQMAGQCSQNEYFDSLLHACIPCQLRCSSNTPPLTCQRYCNASVTNSVKGTNAILWTCLGLSLIISLAVFVLMFLLRKISSEPLKDEFKNTGSGLLGMANIDLEKSRTGDEIILPRGLEYTVEECTCEDCIKSKPKVDSDHCFPLPAMEEGATILVTTKTNDYCKSLPAALSATEIEKSISAR
notes: also called BCMA-BHK
As a reminder, the Kd is the concentration at which binding is half-saturated. Higher therefore signals lower affinity. Take B1: the Kd with soluble I125-ztnf4 worked out at 1.25 nM.

B2: TACI-Ig soluble receptor (TACI-Fc4) (Fc fusion, part only; not given: Fc4 carrier, part only)
chain, part: MSGLGRSRRGGRSRVDQEERFPQGLWTGVAMRSCPEEQYWDPLLGTCMSCKTICNHQSQRTCAAFCRSLSCRKEQGKFYDHLLRDCISCASICGQHPKQCAYFCENKLRSPVNLPPELRRQRSGEVENNSDNSGRYQGLEHRGSEASPALPGLKLSADQVALVYS
In the case of B2, the IC50 (read off the curve), inhibition of ztnf4-driven human B cell proliferation in the assay with ztnf4 (human) was 0.1 mg/L.
